# Experimental data reported in PMC7022712, “Functional Analysis of DNMT3A DNA Methyltransferase Mutations Reported in Patients with Acute Myeloid Leukemia”.
# Tests used:
# [1] = biological target: Dnmt3a-CD F162V (Mus musculus, UniProt O88508 608-908, F748V); test: fluorescence polarization; 100 uM AdoHcy; no plateau reached; Buffer A: 20 mM HEPES pH 7.5, 100 mM KCl, 1 mM EDTA, 1 mM DTT, 100 uM AdoHcy, 25 C; DNA 100 nM (Methods) or 10 nM (Figure 6 legend); Hill fit; settings: protein: recombinant; tags: C-terminal His6; chain copies: 2; label: 5'-FAM on strand 1 via aminohexyl linker; blunt
# [2] = biological target: Dnmt3a-CD R146H (Mus musculus, UniProt O88508 608-908, R732H); test: fluorescence polarization; 100 uM AdoHcy; Buffer A: 20 mM HEPES pH 7.5, 100 mM KCl, 1 mM EDTA, 1 mM DTT, 100 uM AdoHcy, 25 C; DNA 100 nM (Methods) or 10 nM (Figure 6 legend); Hill fit; settings: protein: recombinant; tags: C-terminal His6; chain copies: 2; label: 5'-FAM on strand 1 via aminohexyl linker; blunt
# [3] = biological target: Dnmt3a-CD R45W (Mus musculus, UniProt O88508 608-908, R631W); test: as above; settings: protein: recombinant; tags: C-terminal His6; chain copies: 2; label: 5'-FAM on strand 1 via aminohexyl linker; blunt
# [4] = biological target: Dnmt3a-CD S124C (Mus musculus, UniProt O88508 608-908, S710C); test: as above; settings: protein: recombinant; tags: C-terminal His6; chain copies: 2; label: 5'-FAM on strand 1 via aminohexyl linker; blunt
# [5] = biological target: Dnmt3a-CD WT (Mus musculus, UniProt O88508 608-908); test: as above; settings: protein: recombinant; tags: C-terminal His6 (Results); chain copies: 2; label: 5'-FAM on strand 1 via aminohexyl linker; blunt
# Chain of Dnmt3a-CD WT (O88508 608-908): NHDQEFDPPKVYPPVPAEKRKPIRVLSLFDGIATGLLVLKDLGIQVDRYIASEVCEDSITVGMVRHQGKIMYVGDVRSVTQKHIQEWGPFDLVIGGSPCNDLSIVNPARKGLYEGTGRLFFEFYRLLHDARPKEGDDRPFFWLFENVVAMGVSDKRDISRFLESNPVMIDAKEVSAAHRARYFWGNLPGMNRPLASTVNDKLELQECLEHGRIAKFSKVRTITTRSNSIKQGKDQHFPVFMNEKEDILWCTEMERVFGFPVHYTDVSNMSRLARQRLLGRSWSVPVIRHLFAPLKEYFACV
# Chain of Dnmt3a-CD S124C (O88508 608-908 S710C): as the sequence (O88508 608-908) above, with S103C counted along it
# Chain of Dnmt3a-CD R146H (O88508 608-908 R732H): as the sequence (O88508 608-908) above, with R125H counted along it
# Chain of Dnmt3a-CD R45W (O88508 608-908 R631W): as the sequence (O88508 608-908) above, with R24W counted along it
# Chain of Dnmt3a-CD F162V (O88508 608-908 F748V): as the sequence (O88508 608-908) above, with F141V counted along it
binder,measurement,setting,value
fCG/CG (dsDNA) DNA 1: CTGAATACTACTTGCGCTCTCTAACCTGAT DNA 2: ATCAGGTTAGAGAGCGCAAGTAGTATTCAG,Kd,[1],232 ± 32 nM
same,binding result,[2],no binding
same,binding result,[3],no binding
same,Kd,[4],127 ± 44 nM
same,Kd,[5],77 ± 6 nM
